These are literature values, as cited in patent US20050181485A1, “Cellulose digesting enzyme gene and utilization of the gene” (priority 2002, published 2005).

Read-outs that look alike come from different tables or passages of the source.

For the data set the following is noted: known cellobiose dehydrogenases.

B1: Phanerochaete chrysosporium: known cellobiose dehydrogenase reported by Henriksson et al. (protein, UniProt Q01738 19-773, looked up)
Cellobiose dehydrogenase: QSASQFTDPTTGFQFTGITDPVHDVTYGFVFPPLATSGAQSTEFIGEVVAPIASKWIGIALGGAMNNDLLLVAWANGNQIVSSTRWATGYVQPTAYTGTATLTTLPETTINSTHWKWVFRCQGCTEWNNGGGIDVTSQGVLAWAFSNVAVDDPSDPQSTFSEHTDFGFFGIDYSTAHSANYQNYLNGDSGNPTTTSTKPTSTSSSVTTGPTVSATPYDYIIVGAGPGGIIAADRLSEAGKKVLLLERGGPSTKQTGGTYVAPWATSSGLTKFDIPGLFESLFTDSNPFWWCKDITVFAGCLVGGGTSVNGALYWYPNDGDFSSSVGWPSSWTNHAPYTSKLSSRLPSTDHPSTDGQRYLEQSFNVVSQLLKGQGYNQATINDNPNYKDHVFGYSAFDFLNGKRAGPVATYLQTALARPNFTFKTNVMVSNVVRNGSQILGVQTNDPTLGPNGFIPVTPKGRVILSAGAFGTSRILFQSGIGPTDMIQTVQSNPTAAAALPPQNQWINLPVGMNAQDNPSINLVFTHPSIDAYENWADVWSNPRPADAAQYLANQSGVFAGASPKLNFWRAYSGSDGFTRYAQGTVRPGAASVNSSLPYNASQIFTITVYLSTGIQSRGRIGIDAALRGTVLTPPWLVNPVDKTVLLQALHDVVSNIGSIPGLTMITPDVTQTLEEYVDAYDPATMNSNHWVSSTTIGSSPQSAVVDSNVKVFGTNNLFIVDAGIIPHLPTGNPQGTLMSAAEQAAAKILALAGGP
Consider B1, for which the Isoelectric point is listed as 4.2, the “Optimal pH” value is reported as 5.0 and the Optimal temperature is 50 °C. The Isoelectric point entry (listed as cellobiose dehydrogenase derived from Phanerochaete chrysosporium) is “about 4.2”.
